Protein production data for 19 sequences are collected here from a protein production outcome set (Wang et al. 2014).

The series can be described thus: label from the status in PepcDB records.
For the sequence “MSGKNIVFLVLLLFIPVSLAAHYLEWGDLIVFITAGLAILPLAAWMGAATEEIAVVVGPTLGGLLNATFGNATELIIALVALNAGLVNVVKASITGSIIGNLLLVMGLSMLLGGLRHKEQTFQPIVARVNASAMNLAVIAILLPTAMNYTAQGIGEETLQYLSVAVAVVLILVYILTLIFSMKTHAYLYDVGVAEIETEENPHPKPNILLWSGVLLVCTLLVAVESELLVDALEVATSQLGLTALFTGVILVPIVGNAAEHATAVTVAMKDKMDLSVSVAVGSSMQIALFVAPVLVIAGWILGQPMDLDFQPFELVAVVVSVLIANSISSDGKSNWLEGTLLLAAYTVLGFAFYFHPDVGGLG”, the protein production entry is given as “failed”.
As for “MSGKRVAKNTLFQIVKMLITTVVNLYMVRVLLHQLGVEGYGIFNLIAGVLALMLFLNGAMTTSSQRYLSFYSTQQLEKRTSVFATTKSLHIVVAMIIFLLLFSLQTFIFEDLINIPVSVVSSAQSLYQIMAVGVLASVVTVPFNAQINANEDLGIDAVFSVFESLFKLIAAFLIVFFENQLVSLGALFVLVSWTMLIVKVVYCRIKYEECNLLNFKLDIALFKEMIGFTSWNSFGAICGVARVQGLAVVLNHFFGVYINAVYAIAVQVNGKLKEFSINIMKAFNPRIVKAESKDNREEMLHLSMLASRFSLLLYSVIALPIFFETDFMLSIWLGDYPDGVLTFIKLFLVLAFVNLTTVGLQTAIQATGDVKAYQSTIGSVLLLTVPLAYIFLSLGYPPYTVIVVSIFMEVVSCGMRLAFLKLKAGLSIKKYILFVINKALQVLIPTIVVLFSLTISFEQSILRFISTTLVSFGMISFLTYWLVLGVEEKKMIRLKV”, the protein production entry is “not failed”.
As for “MSGPEAEQQSVVLYDIEDKPPLGKAIPLGIQHVLAMFLGNVAPPLILAGAVGSVTGETTFLVQMALIVAGIATIVQAYPVGPVGARLPVVMGTSFAFLGPLIGIGNQFGIAAVFGASLLAAPVEVIMGVSFDRFRRFFPPLVTGIVVMLIGLTLIPTGMNYAAGASAGPSAEGYGSFVNLGLAGLVLIVTVGLNQFFEGFLRVISVFVGIIVGYLAALALGVVDLSAVAAAGWVTVPVPLKYGLAFEPSAVVTVAFLYIITGMETIGDISGTVSATGRNATREEIRGGLVADGVMSVFGAVFNALPNTSFSQNVGLVNFTGVASRYVAGIGGVVLLALGFIPKVGAVVSAMPDAVLGGGALILFAMIFSSGARLITQNVELDHRNSTILAMSMALGLGVAFRPEILQNFPSEVQTLFGSALVTGGMAALILNIVFPGGSVGTGPTEYTAGLEPDPVETGAGAPPVDDD”, the entry is “failed”.
The same measure for “MSGSLRDSAIDHFNKTISLMQKRQNKEALEELEKAEEAAKQAKANDILIHTVNLRGQLMLTLGALDEVLRICGFASNFFADILLKDPENEFFQQSFQMNLNNLGTTGNFYHNTGRFPQAKKAYETGLGITLKLLQSSPQDDFLQNYTGTTLNNLGNLLSDMGRIEDAKNRYEKALEMREKLLEKDPENVAYQSYVGGTLNNLGNLLKNMGRIEDAKNRYEKALEMREKLLEKDPENVAYQSYVAMTLNNLGNLLKNMGRIEDAKNKYEKALEMREKLLEKDPENVAYQSDVAMTLNNLGTLLSDLGKIEDAKNRYEKALEIYEKLLENDPENVAYQSYVAMALNNLGNLLKNMGRIEDAKNRYEKALEMREKLLENDPENVAYQSDVAMTLNNLGTLLSDMGRIEDAKNRYEKALEIYEKLLEKDPENIAYQSDIGGTLNNLGTLLSDMGRIEDAKNRYEKALEIYEKLLEKDPENIAYQSEVGGTLNNLGTLLSDMGRIEDAKNRYEKALEIYEKLLEKDPENIAYQSEVGTMLNNLGNLLSDMGRIEDAKNRYKKALEIYEKLLEKDPENIAYQSYVGGTLNNLGNLLSDMGRIEDAKNRYKKALEIYEKLLEKDPENVAYQSYVGTMLNNLGTLLSDMGRIEDAKNRYKKALEIYEKLLEKDPENVAYQSYVGGTLNNLGNLLSDMGRIEDAKNRYKKALGIYEKLLEKDPGNLAYHSEVNTIQCKVKKVKGSGRC”: “failed”; for “MSGTGEVRGMRAARIAAGAVIPGELALAVCLAAGVRPPVWATAAAEAVALAVLMLEAWVLRSLYASRRAQGLEPPAALRAAVRAVVPARVRRLLVHELRAAASLGRWAARRKHGVRPGDHVAGYTGPQTAMMYGLIFVSVIETVALAVLIPWPVVHRVLLVLDVYGVLMMLGLHAACVTRPHVARPDGSLRIRYGALFDLAVPADAVASVRVDRCYPQGRLVTLSEKGVLDLIVAGQTTVTLELTRPLVFTRPLGGRGEARTIRFHADDPRALVGALRRPALT”: “failed”.
“MSGVILGRYWGGLSQLIYVIIGAAGVPWFADMSGGPEVLLGATGGYLLGFILAALLLGHFVDRHIRARKFTPMLGLMTIANFGLIYIPGLVVLGLWSLKTQGTLPGPWELLVMGLLPFIPGDILKITGAAALTRAITPKEPYGEEIDIQKAEGWRVP”: the protein production entry is reported as “failed”.
Regarding “MSGVTSEPIAMDATRFQHTPYYCEENVYLLCKTLCENGVAEATCSDLFVVFISNEKKQVPLWHQKASTRADGVVLWDYHVICVQRKKESDSEPLVWDLDSTLPFPSPLASYVTETIQPSFQLFAEYQRFFRIVHAPLFFKHFASDRRHMKEPDGSWTAQPPPYEPIVAQDGILHNLSEYIAMSGADTLSSLDPETVTAAISQKLGVVVSHTQLQDLFTKLP”, the protein production entry was “failed”.
In the case of “MSHAHKKHKENAPKSLNFYVITISTSRYEKLLKKEPIVDESGDIIKQLLIENGHKIIGYSLVPDDKIKILKAFTDALSIDEVDVIISTGGTGYSPTDITVETIRKLFDREIEGFSDVFRLVSFNDPEVKAAAYLTKASAGIIGKKIVYLLPGSPDAVKLALKELILPEVGHLVYLVRS”, the protein production entry is recorded as “not failed”.
The same measure for “MSHKCFKDESFETRISCPLCQKELIMTWQRDNIPYFGEIMYVSAKCPCSFRFADTMILSSKEPMRYELSVESPEDLDARVIRSTSGTIRIPEMGIVVEPGTVSDSYITNIEGVLQRVQNVLMTASRWVREDEEKFARSQELLCMLNEVIEGRRAITVIIEDPLGNSAIISKKAVASKLSKEEAEKLNTGMIVFDVDKSELAHDISDNVKPLGGDLEHHHHHH”: “not failed”; for “MSHLRIPKNWTIQRSTPFFTKDNVPEALLTHHNTAVDVFGQICVMEGVVTYYGFANSEATEPEIKVVINAGQFATSPPQYWHRIELSDDAQFNINFWSDQDKSGKKMFNTKLEHHHHHH”: “not failed”; for “MSHVSDYRPCFLIPCYNHGSTIADVVASLSSFDLPVLVVDDGSNEDTKQALSALSEQGLIKLISLSENQGKGGAVMAGLHQAHQLGFTHTIQIDADGQHDLEALPKLLSASETKPDNLISGQPIYDESVPKARLYGRYATHIWVWIETLSLSIKDSMCGFRAYPVAKTVAVLNKYNIGKRMDFDIEILVRMYWEGVDIDFVPTRVIYPEGGISHFDALWDNVKISWMHTRLFFGMLPRIPSLLARKRRHTDDSNAHWSKRKEQGTILGIKTLLAVYRLFGRKAFDLILKLVMRYYHFTGKSAREASEIYLQNLQRYAAQQNIALPKQLDSYHHLLSFGRTMLDKLAAWQGDFNVDNLTIHGQHHFEEMAQKKQGVLILGSHLGNIELCRALGRRHSHVKINALVFTQHAEQFNAVMKAVNPNSELNLIQVSSMGPDTAILLQQKIEQGEWVVIVGDRTSTSKENRVVWADFLGKPAPFPQGPFMLASVLKAPVYLLFGLRDDEANTPHFNVYFEHFSDQITLPRKERQQALEHVVQQYAHRLEHHTLQAPLQWYNFFNFWTLSNQPHDKQQ”: “failed”.
In the case of “MSIEERLEALEKEIQKMKDIEEIKKLKGQYFRCLDGKFWDELETTLSPNIVTSYSNGKLVFHGPKEVTDYFKKAMPREEISMHMGHTPEITIDSETTATGRWYLEDKLIFTEESKYAGSGVNGGAFYTDKYEKVDGKWYILETGYLRVYEEHFMRDPKIKITMNMHKTK”, the protein production entry is on record as “not failed”.
As to “MSIFANLKDRMKAVFQPRSDILASQDAESTPGSRDALFAIEELSRAVRNDPDAVEIYLALGNLYRLRGDIDRAVQIRSSLIVRPGLDNRFRARAYLELGRDYRRGGFVDRALQAFDEAQRLGAERDAIILELAHLHADSGSFDLAAEQFGRVGHKPAQAHYLVRHAEDLCGQGEFAEAVKTLTRAVKVYPGSIEAWTTRIAMHIRSGEWRKAKSMLREAMQSVSPDRRFLVFDGILAITPPENAPDSVQQFEQNRCECVLPVISEQEPELLLHYYGALFLLRCGEREQAGNWLAKAMVLRPDFWAARLELLGISMDRQQLSPVFKGQLEYFVSQARHVKRFVCQNCGLRREQAFYLCPRCRSWHSATFRLSLQD”, the protein production entry was “failed”.
As to “MSIIIPAYNEEENIKRAIKAALSQDYPVSEVIVVDDGSEDGTYERAKEIKDHRLKVLKIDHRGKAGAINEGLKIAKGSVIVTTDADSFMSKDAVRRLVERFYSDDVVAVGGQIRVIVESFMTLVQDIEHLRIAMYRRGKELENLSLAPGPLSAFRRDVLEKIGGIQRSIVEDYATTKIVKKYGRVVYAPKAKLYTRMPITLRDLWRQRKRWFLGDLQHHNLNDLLNLLLGDVIALLDVILPFIFLLEGSYLPLLAFVMFEVITMVIAVIWEGGSLIEALLFPVVLWFLALFYLSLHLYGYAVYGLKSLLRFTRS”, the protein production result is given as “failed”.
As for “MSINISELLQPITEQSPCGEDYSFSNEFHLIKKARTQDDVLLDQGDWVTELKQADWETVTSTSSNLLKTKTKDIRLLTWLSEGWANLYGFEGIYQGIELSHRLLDQFWNDIHPVVEDDDLDQRIALLQGLINQLPLLIKKTPLINTSPYYHLLNYENFLHHQNIRRKQSDEYEQLDGPSEIELFEQALFNTSKSFQYQNYQMFKHVVSQWQQLKDVLDRLMGVDAPSFAAIDSSLQDIDVNLRKIYKAEAFDTNPVATSSATASSHASETLSTEPMPTSNVNVNQPSFQPQTQNHIQNREQAIRVLQDISDYFQANEPHSPVSYMLQKTIKWSQMPLHEWLAQVIKDEHPLQLVQEALGVQPKNEYE”, the entry is “failed”; as for “MSINLSKGDKIDLKKSNPGLSNILVGLGWDPVQQSGGGFFKSLFGGGQADIDCDASVFMLNQEGKLSGIKDLIYFGNLKSACKSVLHTGDNLTGEGTGDDEQILVNLDKVPSNIHKLLFVVNIYNCVDRKQHFGMIENAYIRVEDQGNKKEIAKYNLSDNYSEKTTLIVGAIYRKDGSWQFKAIGEGTKDAGLKEVMQNLDRIECAYGI”, “failed”; as for “MSISDNSRDQLGELPAGRPLQSDFDNDLDYPRLGSVTFRRGTLTENQQTMWDEKWPELGRVLEDELIDVDAWFGREGAKTIVEIGSGTGTSTAAMAPLEADTNIVAVELYKPGLAKLMGSVVRGEIDNVRMVRGDGIEVLNRMFADGSLDGIRVYFPDPWPKARHNKRRIIQSGPLNLFAKKLKPGGVLHVATDHADYAEWINELVEVEPLLEYKGWPWEECPQLTDRQVITKFEGKGLEKDHVINEYLWQKVQN”, “failed”.
As for “MSITLITAAPGAGKTIFAVWNIIKPAVEADRVVYTAGIPELKLPAISLSYSQVKRWADRELVEVENPSGIPIPDDEKPSRLQNITEGALIVIDEVQYLWPASGSREPGEDIKYLTKHRHHGLEFVLITQAPQLIHKNVLAVVDKHIHMLSDWHGRKRYEWPEYCATVRATSSKLKAVSQRYELPKEAYGLYRSASMHI”, the protein production result was “failed”.
As to “MSIWSPLLFNAEGKKQGYDCRYLHKLTDQGNKLSDSGLPVIFTLAHLCAMAGVSFSLIHSCVSRKYDPYRSFTIKKRSGGYRQIVVPEPELMHLQRWINEFILKRAKVHSCAAAYISGSDIKMNASKHLGANWLIKLDIQRFFESISELQVYYIFHRLGYPKLLSFEMARICTRVDTQSNRHFRPRWNNRIHHFEILEYCDSRVGYLPQGAPTSPSLSNLTCRKLDKEIYDLSCRSDCRYTRYADDFAFSFIDLDREKASNFVNQVSRIISSYGFRKNARKTKIIPPGSKKIITGLVLGNGKVHLQKELKDYIRQNIYFATKYGVDEHCKKRGFVSIDGFYNHLEGIVNFALFIEPDFGEKAFEEFRAIKWPSLIVGLHA”, the protein production entry is given as “failed”.
